Assay results as given in the supplement of paper PMC9112550, “Optimization of the antimicrobial peptide Bac7 by deep mutational scanning” (BMC Biology, 2022).

Tested on: Escherichia coli TOP10
Experiment: shrunken log2 fold change of peptide-encoding DNA abundance (4.5 h post-induction vs induction); higher = less antimicrobial activity (less host growth inhibition)
Settings: time post-induction: 4.5 h; library: site-saturation at positions 5, 18, 19, 20
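Further: peptides expressed intracellularly from a pBAD plasmid library in pooled LB shake-flask culture, induced with 0.3% L-arabinose, DNA abundance read by NGS, three biological replicates, DESeq2 with apeglm shrinkage.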

Sequence | shrunken log2 fold change
RRIRARPPRLPRPRPRPIQGPRP | 0.0518
RRIRMRPPRLPRPRPRPWCLPRP | -0.208
RRIRPRPPRLPRPRPRPFNDPRP | 0.0502
RRIRTRPPRLPRPRPRPIIVPRP | -0.0629
RRIRHRPPRLPRPRPRPKSVPRP | -0.0127
RRIRPRPPRLPRPRPRPMDDPRP | 0.00641
RRIRYRPPRLPRPRPRPLFMPRP | -1.24
RRIRHRPPRLPRPRPRPLEQPRP | -0.0138
RRIRQRPPRLPRPRPRPTMQPRP | 0.0998
RRIRMRPPRLPRPRPRPALCPRP | 0.221
RRIRYRPPRLPRPRPRPMMEPRP | -0.141
RRIRFRPPRLPRPRPRPEYRPRP | -0.218
RRIRQRPPRLPRPRPRPAWYPRP | -0.0125
RRIRNRPPRLPRPRPRPVMLPRP | -0.171
RRIRCRPPRLPRPRPRPLLDPRP | 0.0618
RRIRLRPPRLPRPRPRPWPPPRP | 0.668
RRIRVRPPRLPRPRPRPRWYPRP | -0.232
RRIRVRPPRLPRPRPRPSYAPRP | -0.477
RRIRTRPPRLPRPRPRPGADPRP | 0.301
RRIRDRPPRLPRPRPRPPMEPRP | -0.0667
RRIRPRPPRLPRPRPRPQQEPRP | 0.0468
RRIRARPPRLPRPRPRPGQNPRP | 0.596
RRIRYRPPRLPRPRPRPNDKPRP | -0.892
RRIRYRPPRLPRPRPRPNYVPRP | -0.466
RRIRHRPPRLPRPRPRPYCFPRP | -0.792

Sequence | shrunken log2 fold change
RRIRGRPPRLPRPRPRPKGYPRP | 0.214
RRIRCRPPRLPRPRPRPRWKPRP | 0.847
RRIRKRPPRLPRPRPRPCYLPRP | -0.427
RRIRRRPPRLPRPRPRPWDDPRP | -0.0642
RRIRVRPPRLPRPRPRPATEPRP | -0.0882
RRIRLRPPRLPRPRPRPHLSPRP | -0.0728
RRIRERPPRLPRPRPRPFRDPRP | 0.0112
RRIRTRPPRLPRPRPRPDWKPRP | -0.0156
RRIRLRPPRLPRPRPRPICWPRP | -0.0336
RRIRNRPPRLPRPRPRPIGRPRP | -0.0141
RRIRNRPPRLPRPRPRPVGGPRP | 0.279
RRIRHRPPRLPRPRPRPTPHPRP | 0.281
RRIRIRPPRLPRPRPRPPAQPRP | 0.0916
RRIRKRPPRLPRPRPRPMTDPRP | 0.103
RRIRSRPPRLPRPRPRPGNEPRP | -0.183
RRIRTRPPRLPRPRPRPEFMPRP | 0.0647
RRIRWRPPRLPRPRPRPKVVPRP | 0.352
RRIRGRPPRLPRPRPRPVLHPRP | -0.0969
RRIRERPPRLPRPRPRPRKCPRP | -0.0265
RRIRVRPPRLPRPRPRPFVWPRP | -0.03
RRIRVRPPRLPRPRPRPNFDPRP | -0.0598
RRIRHRPPRLPRPRPRPREHPRP | -0.126
RRIRQRPPRLPRPRPRPKYRPRP | -0.0976
RRIRWRPPRLPRPRPRPRWEPRP | 0.238
RRIRWRPPRLPRPRPRPKVGPRP | 0.0351

Sequence | shrunken log2 fold change
RRIRNRPPRLPRPRPRPINRPRP | -0.0423
RRIRRRPPRLPRPRPRPPDIPRP | -0.0254
RRIRCRPPRLPRPRPRPYFAPRP | -0.563
RRIRGRPPRLPRPRPRPHLRPRP | -0.148
RRIRMRPPRLPRPRPRPLWQPRP | 0.304
RRIRNRPPRLPRPRPRPCDQPRP | -0.0229
RRIRHRPPRLPRPRPRPKGEPRP | -0.0141
RRIRTRPPRLPRPRPRPVFEPRP | -0.289
RRIRPRPPRLPRPRPRPRMRPRP | 0.92
RRIRDRPPRLPRPRPRPAPAPRP | 0.661
RRIRCRPPRLPRPRPRPPGWPRP | 0.612
RRIRRRPPRLPRPRPRPEKMPRP | 0.296
RRIRGRPPRLPRPRPRPQWMPRP | 0.115
RRIRSRPPRLPRPRPRPVWYPRP | 0.154
RRIRIRPPRLPRPRPRPPYCPRP | -0.328
RRIRDRPPRLPRPRPRPEFQPRP | 0.4
RRIRRRPPRLPRPRPRPAMKPRP | 0.373
RRIRKRPPRLPRPRPRPYSKPRP | -0.608
RRIRLRPPRLPRPRPRPKYVPRP | -0.126
RRIRCRPPRLPRPRPRPTSIPRP | -0.343
RRIRERPPRLPRPRPRPEPLPRP | -0.091
RRIRTRPPRLPRPRPRPRTPPRP | 0.138
RRIRCRPPRLPRPRPRPLRHPRP | 0.479
RRIRNRPPRLPRPRPRPWKVPRP | -1.21
RRIRYRPPRLPRPRPRPDTAPRP | -0.343
